US20220056125A1 (CEPHALON, published 2022)

T1: human PAR-2 (human, UniProt P55085 26-397)
T1 sequence: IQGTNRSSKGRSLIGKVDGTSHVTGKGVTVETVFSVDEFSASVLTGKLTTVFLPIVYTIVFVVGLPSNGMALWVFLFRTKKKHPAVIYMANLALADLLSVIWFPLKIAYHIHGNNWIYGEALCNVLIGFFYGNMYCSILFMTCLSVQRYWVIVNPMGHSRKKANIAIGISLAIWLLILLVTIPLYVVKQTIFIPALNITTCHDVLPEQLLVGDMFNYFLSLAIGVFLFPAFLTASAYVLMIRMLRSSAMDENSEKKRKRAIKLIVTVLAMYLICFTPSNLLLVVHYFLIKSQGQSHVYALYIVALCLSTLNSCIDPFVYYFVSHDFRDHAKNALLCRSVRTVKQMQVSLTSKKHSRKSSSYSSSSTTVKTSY

B1: P24E283 (antibody, human IgG4 S228P, kappa, V domains shown)
VH: QVQLVQSGAEVKKPGSSVKVSCKASGFSLNSYAVIWVRQAPGQGLEWMGVIWGNGNTYYAQKFQGRVTITADESTSTAYMELSSLRSEDTAVYYCARWRGYKDYPFDYWGQGTLVTVSS
VL: EIVLTQSPATLSLSPGERATLSCKASQNIYKYLDWYQQKPGQAPRLLIYNTNSLATGIPARFSGSGSGRDFTLTISSLEPEDFAVYYCLQHNSGWTFGGGTKVEIKR
B2: P24E743 (antibody, human IgG4 S228P, kappa, V domains shown)
VH: QVQLVQSGAEVKKPGSSVKVSCKASGFSLSSYAISWVRQAPGQGLEWMGVIWGNGNTYYAQKFQGRVTITADESTSTAYMELSSLRSEDTAVYYCARWRGYKDYPFDYWGQGTLVTVSS
VL: EIVLTQSPATLSLSPGERATLSCKASQNVYKWLDWYQQKPGQAPRLLIYNAYSLATGIPARFSGSGSGRDFTLTISSLEPEDFAVYYCQQHGSGWTFGGGTKVEIKR
B3: P24E297 (antibody, human IgG4 S228P, kappa, V domains shown)
VH: QVQLVQSGAEVKKPGSSVKVSCKASGFSLNSYAISWVRQAPGQGLEWMGVIWGNGNTYYAQKFQGRVTITADESTSTAYMELSSLRSEDTAVYYCARWRGYKDYPFDYWGQGTLVTVSS
VL: EIVLTQSPATLSLSPGERATLSCKASQNIYKYLDWYQQKPGQAPRLLIYNTNSRATGIPARFSGSGSGRDFTLTISSLEPEDFAVYYCLQHNSGWTFGGGTKVEIKR
B4: P24E284 (antibody, human IgG4 S228P, kappa, V domains shown)
VH: QVQLVQSGAEVKKPGSSVKVSCKASGFSLNSYAVIWVRQAPGQGLEWMGVIWGNGNTYYAQKFQGRVTITADESTSTAYMELSSLRSEDTAVYYCARWRGYKDYPFDYWGQGTLVTVSS
VL: EIVLTQSPATLSLSPGERATLSCRASQNIYKYLDWYQQKPGQAPRLLIYNTNSLATGIPARFSGSGSGRDFTLTISSLEPEDFAVYYCLQHNSGWTFGGGTKVEIKR
B5: P24E292 (antibody, human IgG4 S228P, kappa, V domains shown)
VH: QVQLVQSGAEVKKPGSSVKVSCKASGFSLNSYGIIWVRQAPGQGLEWMGVIWGNGNTYYAQKFQGRVTITADESTSTAYMELSSLRSEDTAVYYCARWRGYKDYPFDYWGQGTLVTVSS
VL: EIVLTQSPATLSLSPGERATLSCKASQNIYKYLDWYQQKPGQAPRLLIYNTNSRATGIPARFSGSGSGRDFTLTISSLEPEDFAVYYCLQHNSGWTFGGGTKVEIKR
B6: P24E288 (antibody, human IgG4 S228P, kappa, V domains shown)
VH: QVQLVQSGAEVKKPGSSVKVSCKASGFSLNSYGIIWVRQAPGQGLEWMGVIWGNGNTYYAQKFQGRVTITADESTSTAYMELSSLRSEDTAVYYCARWRGYKDYPFDYWGQGTLVTVSS
VL: EIVLTQSPATLSLSPGERATLSCKASQNIYKYLDWYQQKPGQAPRLLIYNTNSLATGIPARFSGSGSGRDFTLTISSLEPEDFAVYYCLQHNSGWTFGGGTKVEIKR
B7: P24E285 (antibody, human IgG4 S228P, kappa, V domains shown)
VH: QVQLVQSGAEVKKPGSSVKVSCKASGFSLNSYAVIWVRQAPGQGLEWMGVIWGNGNTYYAQKFQGRVTITADESTSTAYMELSSLRSEDTAVYYCARWRGYKDYPFDYWGQGTLVTVSS
VL: EIVLTQSPATLSLSPGERATLSCKASQNVYKYLDWYQQKPGQAPRLLIYNTNSLATGIPARFSGSGSGRDFTLTISSLEPEDFAVYYCLQHNSGWTFGGGTKVEIKR
B8: P24E289 (antibody, human IgG4 S228P, kappa, V domains shown)
VH: QVQLVQSGAEVKKPGSSVKVSCKASGFSLNSYGIIWVRQAPGQGLEWMGVIWGNGNTYYAQKFQGRVTITADESTSTAYMELSSLRSEDTAVYYCARWRGYKDYPFDYWGQGTLVTVSS
VL: EIVLTQSPATLSLSPGERATLSCRASQNIYKYLDWYQQKPGQAPRLLIYNTNSLATGIPARFSGSGSGRDFTLTISSLEPEDFAVYYCLQHNSGWTFGGGTKVEIKR
B9: P24E301 (antibody, human IgG4 S228P, kappa, V domains shown)
VH: QVQLVQSGAEVKKPGSSVKVSCKASGFSLSSYAISWVRQAPGQGLEWMGVIWGNGNTYYAQKFQGRVTITADESTSTAYMELSSLRSEDTAVYYCARWKGYKDYPFDYWGQGTLVTVSS
VL: EIVLTQSPATLSLSPGERATLSCKASQNIYKWLDWYQQKPGQAPRLLIYNTNSLATGIPARFSGSGSGRDFTLTISSLEPEDFAVYYCLQHNSGWTFGGGTKVEIKR
B10: P24E287 (antibody, human IgG4 S228P, kappa, V domains shown)
VH: QVQLVQSGAEVKKPGSSVKVSCKASGFSLNSYAVIWVRQAPGQGLEWMGVIWGNGNTYYAQKFQGRVTITADESTSTAYMELSSLRSEDTAVYYCARWRGYKDYPFDYWGQGTLVTVSS
VL: EIVLTQSPATLSLSPGERATLSCKASQNIYKYLDWYQQKPGQAPRLLIYNTNSRATGIPARFSGSGSGRDFTLTISSLEPEDFAVYYCLQHNSGWTFGGGTKVEIKR
B11: P24E286 (antibody, human IgG4 S228P, kappa, V domains shown)
VH: QVQLVQSGAEVKKPGSSVKVSCKASGFSLNSYAVIWVRQAPGQGLEWMGVIWGNGNTYYAQKFQGRVTITADESTSTAYMELSSLRSEDTAVYYCARWRGYKDYPFDYWGQGTLVTVSS
VL: EIVLTQSPATLSLSPGERATLSCKASQNIYKYLDWYQQKPGQAPRLLIYNANSLATGIPARFSGSGSGRDFTLTISSLEPEDFAVYYCLQHNSGWTFGGGTKVEIKR
B12: P24E294 (antibody, human IgG4 S228P, kappa, V domains shown)
VH: QVQLVQSGAEVKKPGSSVKVSCKASGFSLNSYAISWVRQAPGQGLEWMGVIWGNGNTYYAQKFQGRVTITADESTSTAYMELSSLRSEDTAVYYCARWRGYKDYPFDYWGQGTLVTVSS
VL: EIVLTQSPATLSLSPGERATLSCRASQNIYKYLDWYQQKPGQAPRLLIYNTNSLATGIPARFSGSGSGRDFTLTISSLEPEDFAVYYCLQHNSGWTFGGGTKVEIKR
B13: P24E290 (antibody, human IgG4 S228P, kappa, V domains shown)
VH: QVQLVQSGAEVKKPGSSVKVSCKASGFSLNSYGIIWVRQAPGQGLEWMGVIWGNGNTYYAQKFQGRVTITADESTSTAYMELSSLRSEDTAVYYCARWRGYKDYPFDYWGQGTLVTVSS
VL: EIVLTQSPATLSLSPGERATLSCKASQNVYKYLDWYQQKPGQAPRLLIYNTNSLATGIPARFSGSGSGRDFTLTISSLEPEDFAVYYCLQHNSGWTFGGGTKVEIKR
B14: P24E794 (antibody, human IgG4 S228P, kappa, V domains shown)
VH: QVQLVQSGAEVKKPGSSVKVSCKASGFSLSSYAISWVRQAPGQGLEWMGVIWGNGNTYYAQKFQGRVTITADESTSTAYMELSSLRSEDTAVYYCARWRGYKDYPFDYWGQGTLVTVSS
VL: EIVLTQSPATLSLSPGERATLSCRASQNVYKWLDWYQQKPGQAPRLLIYNAYSRATGIPARFSGSGSGRDFTLTISSLEPEDFAVYYCQQHNSGWTFGGGTKVEIKR
B15: P24E300 (antibody, human IgG4 S228P, kappa, V domains shown)
VH: QVQLVQSGAEVKKPGSSVKVSCKASGFSLSSYAISWVRQAPGQGLEWMGVIWGNGNTYYAQKFQGRVTITADESTSTAYMELSSLRSEDTAVYYCARWRGWKDYPFDYWGQGTLVTVSS
VL: EIVLTQSPATLSLSPGERATLSCKASQNIYKWLDWYQQKPGQAPRLLIYNTNSLATGIPARFSGSGSGRDFTLTISSLEPEDFAVYYCLQHNSGWTFGGGTKVEIKR
B16: P24E295 (antibody, human IgG4 S228P, kappa, V domains shown)
VH: QVQLVQSGAEVKKPGSSVKVSCKASGFSLNSYAISWVRQAPGQGLEWMGVIWGNGNTYYAQKFQGRVTITADESTSTAYMELSSLRSEDTAVYYCARWRGYKDYPFDYWGQGTLVTVSS
VL: EIVLTQSPATLSLSPGERATLSCKASQNVYKYLDWYQQKPGQAPRLLIYNTNSLATGIPARFSGSGSGRDFTLTISSLEPEDFAVYYCLQHNSGWTFGGGTKVEIKR
B17: P24E291 (antibody, human IgG4 S228P, kappa, V domains shown)
VH: QVQLVQSGAEVKKPGSSVKVSCKASGFSLNSYGIIWVRQAPGQGLEWMGVIWGNGNTYYAQKFQGRVTITADESTSTAYMELSSLRSEDTAVYYCARWRGYKDYPFDYWGQGTLVTVSS
VL: EIVLTQSPATLSLSPGERATLSCKASQNIYKYLDWYQQKPGQAPRLLIYNANSLATGIPARFSGSGSGRDFTLTISSLEPEDFAVYYCLQHNSGWTFGGGTKVEIKR
B18: P24E296 (antibody, human IgG4 S228P, kappa, V domains shown)
VH: QVQLVQSGAEVKKPGSSVKVSCKASGFSLNSYAISWVRQAPGQGLEWMGVIWGNGNTYYAQKFQGRVTITADESTSTAYMELSSLRSEDTAVYYCARWRGYKDYPFDYWGQGTLVTVSS
VL: EIVLTQSPATLSLSPGERATLSCKASQNIYKYLDWYQQKPGQAPRLLIYNANSLATGIPARFSGSGSGRDFTLTISSLEPEDFAVYYCLQHNSGWTFGGGTKVEIKR
B19: P24E298 (antibody, human IgG4 S228P, kappa, V domains shown)
VH: QVQLVQSGAEVKKPGSSVKVSCKASGFSLSSYAISWVRQAPGQGLEWMGVIWGNGNTYYAQKFQGRVTITADESTSTAYMELSSLRSEDTAVYYCARWRGYKDYPFDYWGQGTLVTVSS
VL: EIVLTQSPATLSLSPGERATLSCKASQNIYKWLDWYQQKPGQAPRLLIYNTNSLATGIPARFSGSGSGRDFTLTISSLEPEDFAVYYCLQHNSGWTFGGGTKVEIKR
B20: P24E293 (antibody, human IgG4 S228P, kappa, V domains shown)
VH: QVQLVQSGAEVKKPGSSVKVSCKASGFSLNSYAISWVRQAPGQGLEWMGVIWGNGNTYYAQKFQGRVTITADESTSTAYMELSSLRSEDTAVYYCARWRGYKDYPFDYWGQGTLVTVSS
VL: EIVLTQSPATLSLSPGERATLSCKASQNIYKYLDWYQQKPGQAPRLLIYNTNSLATGIPARFSGSGSGRDFTLTISSLEPEDFAVYYCLQHNSGWTFGGGTKVEIKR

target: T1, human PAR-2; assay: cell-based or functional assay

Point of comparison: B14, “PAR-2 β-arrestin cell based assay IC50, 2 µM SLIGKV” value 0.89 nM. Against it:
- B1 — 4-fold higher, 3.6 nM
- B2 — 1.7-fold higher, 1.51 nM
- B3 — 3.4-fold higher, 3 nM
- B4 — 2.8-fold higher, 2.5 nM
- B5 — within 1.5-fold, 1.2 nM
- B6 — 1.6-fold higher, 1.4 nM
- B7 — 2.6-fold higher, 2.3 nM
- B8 — 2.9-fold higher, 2.6 nM
- B9 — 1.7-fold higher, 1.48 nM
- B10 — 2.5-fold higher, 2.2 nM
- B11 — 2.4-fold higher, 2.1 nM
- B12 — 3.3-fold higher, 2.9 nM
- B13 — 2.5-fold higher, 2.2 nM
- B15 — within 1.5-fold, 1.3 nM
- B16 — 1.8-fold higher, 1.6 nM
- B17 — 3.5-fold higher, 3.1 nM
- B18 — 2.7-fold higher, 2.4 nM
- B19 — 1.7-fold higher, 1.47 nM
- B20 — 2.2-fold higher, 2 nM
